± gives the standard deviation of the averaged measurements.

Data set [1] concerns Saccharomyces cerevisiae. Briefly: protein stability index of tFT-peptide fusion (C-terminal peptide) (PSI (0-1 scale)); higher = more stable (slower turnover). The protocol: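 MPS profiling in S. cerevisiae of the tFT-X12 degron library: putative degron peptides plus stable controls, 12 aa, fused to the C-terminus of a sfGFP-mCherry timer. Cells are FACS-sorted into 8 mCherry/sfGFP bins and deep-sequenced. PSI runs from 0 (unstable) to 1 (stable). Backgrounds are wild type, das1Δ and doa10Δ at 30 °C, and wild type, das1Δ, cdc34-1 and cdc53-1 at 37 °C; 2-3 technical replicates each.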

For data set [2], the system named is Saccharomyces cerevisiae. Described as above. The conditions noted are these: genetic background: wild type; temperature: 30 C.
Setting [3] is: genetic background: cdc34-1, temperature: 37 C.
Setting [4] is: genetic background: cdc53-1, temperature: 37 C.
The mark [5] stands for this setting: genetic background: das1 deletion, temperature: 30 C.
[6] abbreviates: genetic background: das1 deletion, temperature: 37 C.
Setting [7] is: genetic background: doa10 deletion, temperature: 30 C.
Setting [8] is: genetic background: wild type, temperature: 30 C.
[9] abbreviates: genetic background: wild type, temperature: 37 C.
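Note: PSI is a weighted mean of sequencing reads over stability bins, variants kept only with over 10 reads, mCherry proximal and sfGFP distal, peptide attached via GGGS linker.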

Consider AVCVGILIWATV, for which the protein stability index turned out to be 0.0816 ± 0.0045 in the data set on Saccharomyces cerevisiae [1] (setting [3]); 0.0998 ± 0.009 in the data set with Saccharomyces cerevisiae [1] (setting [4]); 0.176 ± 0.029 in the data set on Saccharomyces cerevisiae [1] (setting [5]); 0.275 ± 0.013 in the data set on Saccharomyces cerevisiae [1] (setting [6]); 0.142 ± 0.018 with Saccharomyces cerevisiae [1] (setting [7]); 0.165 ± 0.025 with Saccharomyces cerevisiae [1] (setting [8]). For the same sequence, the protein stability index with Saccharomyces cerevisiae [1] (setting [9]) worked out at 0.264 ± 0.017; with Saccharomyces cerevisiae [2], 0.314 ± 0.08.

On to AVLVSGMVVWLV, for which the protein stability index with Saccharomyces cerevisiae [1] (setting [3]) was 0.643 ± 0.053; with Saccharomyces cerevisiae [1] (setting [4]), 0.709 ± 0.015; in the data set on Saccharomyces cerevisiae [1] (setting [5]), 0.54 ± 0.025; in the data set on Saccharomyces cerevisiae [1] (setting [6]) it was 0.672 ± 0.06; with Saccharomyces cerevisiae [1] (setting [7]) it was 0.32 ± 0.013; with Saccharomyces cerevisiae [1] (setting [8]) it was 0.357 ± 0.0096. Besides, the protein stability index with Saccharomyces cerevisiae [1] (setting [9]) worked out at 0.563 ± 0.01; with Saccharomyces cerevisiae [2], 0.436 ± 0.032.

For AVSFTLVLCSCF, the protein stability index amounted to 0.474 ± 0.025 with Saccharomyces cerevisiae [1] (setting [3]); 0.489 ± 0.029 with Saccharomyces cerevisiae [1] (setting [4]); 0.416 ± 0.039 in the data set on Saccharomyces cerevisiae [1] (setting [5]); 0.473 ± 0.023 in the data set with Saccharomyces cerevisiae [1] (setting [6]); 0.389 ± 0.0073 in the data set with Saccharomyces cerevisiae [1] (setting [7]); 0.401 ± 0.019 in the data set with Saccharomyces cerevisiae [1] (setting [8]). The protein stability index in the data set on Saccharomyces cerevisiae [1] (setting [9]) worked out at 0.444 ± 0.0074; in the data set with Saccharomyces cerevisiae [2] it was 0.449 ± 0.023.

On to AVVLLFIPRKLL, for which the protein stability index came to 0.472 ± 0.042 in the data set on Saccharomyces cerevisiae [1] (setting [3]); 0.53 ± 0.034 with Saccharomyces cerevisiae [1] (setting [4]); 0.39 ± 0.029 in the data set on Saccharomyces cerevisiae [1] (setting [5]); 0.568 ± 0.014 in the data set on Saccharomyces cerevisiae [1] (setting [6]); 0.148 ± 0.011 in the data set on Saccharomyces cerevisiae [1] (setting [7]); 0.173 ± 0.021 with Saccharomyces cerevisiae [1] (setting [8]). Moreover, the figures for the protein stability index in the data set with Saccharomyces cerevisiae [1] (setting [9]) and in the data set with Saccharomyces cerevisiae [2] were 0.293 ± 0.015 and 0.245 ± 0.079, respectively.

On to AVWVAVEVEAGR, for which the protein stability index in the data set with Saccharomyces cerevisiae [1] (setting [3]) was determined as 0.468 ± 0.045; in the data set on Saccharomyces cerevisiae [1] (setting [4]), 0.498 ± 0.025; in the data set with Saccharomyces cerevisiae [1] (setting [5]), 0.331 ± 0.026; in the data set with Saccharomyces cerevisiae [1] (setting [6]), 0.5447 ± 0.0044; in the data set on Saccharomyces cerevisiae [1] (setting [7]) it was 0.3 ± 0.009; in the data set with Saccharomyces cerevisiae [1] (setting [8]), 0.333 ± 0.023. For the same sequence, the protein stability index in the data set with Saccharomyces cerevisiae [1] (setting [9]) came out at 0.53 ± 0.018; in the data set with Saccharomyces cerevisiae [2] it was 0.436 ± 0.026.

Regarding AVYEGLLIRCLI, the protein stability index in the data set on Saccharomyces cerevisiae [1] (setting [3]) turned out to be 0.4982 ± 0.0037; with Saccharomyces cerevisiae [1] (setting [4]), 0.5271 ± 0.0033; with Saccharomyces cerevisiae [1] (setting [5]), 0.392 ± 0.033; in the data set on Saccharomyces cerevisiae [1] (setting [6]), 0.5549 ± 0.0045; with Saccharomyces cerevisiae [1] (setting [7]), 0.195 ± 0.013; with Saccharomyces cerevisiae [1] (setting [8]) it was 0.251 ± 0.021. For the same sequence, the protein stability index is 0.392 ± 0.0068 in the data set on Saccharomyces cerevisiae [1] (setting [9]) and 0.337 ± 0.011 in the data set with Saccharomyces cerevisiae [2].

Regarding AYFLKRSSILVR, the protein stability index in the data set on Saccharomyces cerevisiae [1] (setting [3]) was found to be 0.311 ± 0.05; in the data set on Saccharomyces cerevisiae [1] (setting [4]) it was 0.376 ± 0.015; in the data set with Saccharomyces cerevisiae [1] (setting [5]), 0.241 ± 0.031; in the data set with Saccharomyces cerevisiae [1] (setting [6]), 0.439 ± 0.011; in the data set with Saccharomyces cerevisiae [1] (setting [7]), 0.2062 ± 0.002; in the data set on Saccharomyces cerevisiae [1] (setting [8]), 0.217 ± 0.034. In addition, the protein stability index in the data set with Saccharomyces cerevisiae [1] (setting [9]) was 0.395 ± 0.011; in the data set with Saccharomyces cerevisiae [2], 0.352 ± 0.017.

For CAIHIKIQMSVE, the protein stability index with Saccharomyces cerevisiae [1] (setting [3]) was determined as 0.0158 ± 0.0046; with Saccharomyces cerevisiae [1] (setting [4]) it was 0.0731 ± 0.0079; in the data set with Saccharomyces cerevisiae [1] (setting [5]), 0.0577 ± 0.019; in the data set on Saccharomyces cerevisiae [1] (setting [6]), 0.136 ± 0.031; in the data set with Saccharomyces cerevisiae [1] (setting [7]), 0.0457 ± 0.0051; in the data set with Saccharomyces cerevisiae [1] (setting [8]), 0.0488 ± 0.02. Also, the protein stability index with Saccharomyces cerevisiae [1] (setting [9]) stood at 0.128 ± 0.028; in the data set on Saccharomyces cerevisiae [2], 0.0995 ± 0.011.

With CALCIGTYIRVV, the protein stability index in the data set on Saccharomyces cerevisiae [1] (setting [3]) stood at 0.495 ± 0.01; with Saccharomyces cerevisiae [1] (setting [4]), 0.503 ± 0.014; in the data set with Saccharomyces cerevisiae [1] (setting [5]) it was 0.385 ± 0.029; with Saccharomyces cerevisiae [1] (setting [6]), 0.552 ± 0.0098; with Saccharomyces cerevisiae [1] (setting [7]), 0.367 ± 0.029; in the data set on Saccharomyces cerevisiae [1] (setting [8]), 0.345 ± 0.048. The values for the protein stability index in the data set on Saccharomyces cerevisiae [1] (setting [9]) and in the data set on Saccharomyces cerevisiae [2] were 0.501 ± 0.031 and 0.451 ± 0.029, respectively.

For the sequence CCLFFLVVFVGW, the protein stability index is 0.167 ± 0.0038 in the data set with Saccharomyces cerevisiae [1] (setting [3]); 0.227 ± 0.027 in the data set with Saccharomyces cerevisiae [1] (setting [4]); 0.191 ± 0.034 with Saccharomyces cerevisiae [1] (setting [5]); 0.335 ± 0.027 with Saccharomyces cerevisiae [1] (setting [6]); 0.194 ± 0.029 with Saccharomyces cerevisiae [1] (setting [7]); 0.183 ± 0.019 with Saccharomyces cerevisiae [1] (setting [8]). In addition, the protein stability index in the data set with Saccharomyces cerevisiae [1] (setting [9]) is 0.274 ± 0.0075; in the data set with Saccharomyces cerevisiae [2] it was 0.255 ± 0.021.

For the sequence CCNVLFRVCLFL, the protein stability index came to 0.459 ± 0.0095 in the data set on Saccharomyces cerevisiae [1] (setting [3]); 0.526 ± 0.059 with Saccharomyces cerevisiae [1] (setting [4]); 0.405 ± 0.042 in the data set on Saccharomyces cerevisiae [1] (setting [5]); 0.542 ± 0.022 with Saccharomyces cerevisiae [1] (setting [6]); 0.277 ± 0.0045 in the data set with Saccharomyces cerevisiae [1] (setting [7]); 0.304 ± 0.025 in the data set on Saccharomyces cerevisiae [1] (setting [8]). For the same sequence, the protein stability index was determined as 0.4334 ± 0.0041 in the data set on Saccharomyces cerevisiae [1] (setting [9]) and 0.353 ± 0.048 in the data set on Saccharomyces cerevisiae [2].

Turning to CFGVVVLGLSLD, the protein stability index with Saccharomyces cerevisiae [1] (setting [3]) is 0.442 ± 0.0052; in the data set on Saccharomyces cerevisiae [1] (setting [4]) it was 0.503 ± 0.031; in the data set on Saccharomyces cerevisiae [1] (setting [5]), 0.352 ± 0.039; in the data set with Saccharomyces cerevisiae [1] (setting [6]), 0.564 ± 0.015; in the data set on Saccharomyces cerevisiae [1] (setting [7]), 0.319 ± 0.0043; in the data set on Saccharomyces cerevisiae [1] (setting [8]) it was 0.354 ± 0.027. Moreover, the protein stability index came out at 0.531 ± 0.021 with Saccharomyces cerevisiae [1] (setting [9]) and 0.491 ± 0.024 in the data set on Saccharomyces cerevisiae [2].

Consider CFLPFFIIFIFV, for which the protein stability index with Saccharomyces cerevisiae [1] (setting [3]) was 0.214 ± 0.006; with Saccharomyces cerevisiae [1] (setting [4]), 0.177 ± 0.019; in the data set on Saccharomyces cerevisiae [1] (setting [5]) it was 0.209 ± 0.037; in the data set with Saccharomyces cerevisiae [1] (setting [6]), 0.32781 ± 3.9e-05; in the data set on Saccharomyces cerevisiae [1] (setting [7]) it was 0.271 ± 0.0063; in the data set on Saccharomyces cerevisiae [1] (setting [8]), 0.197 ± 0.031. For the same sequence, the protein stability index in the data set with Saccharomyces cerevisiae [1] (setting [9]) is 0.301 ± 0.015; in the data set with Saccharomyces cerevisiae [2] it was 0.29 ± 0.0067.

As for CFVFIGVGVLLG, the protein stability index in the data set with Saccharomyces cerevisiae [1] (setting [3]) stood at 0.205 ± 0.0083; with Saccharomyces cerevisiae [1] (setting [4]) it was 0.387 ± 0.025; in the data set with Saccharomyces cerevisiae [1] (setting [5]), 0.29 ± 0.039; with Saccharomyces cerevisiae [1] (setting [6]), 0.4436 ± 0.00094; in the data set on Saccharomyces cerevisiae [1] (setting [7]) it was 0.224 ± 0.0069; in the data set with Saccharomyces cerevisiae [1] (setting [8]), 0.234 ± 0.021. The protein stability index with Saccharomyces cerevisiae [1] (setting [9]) stood at 0.382 ± 0.014; in the data set on Saccharomyces cerevisiae [2], 0.376 ± 0.037.

In the case of CIEIDHVIVAIC, the protein stability index is 0.464 ± 0.019 in the data set with Saccharomyces cerevisiae [1] (setting [3]); 0.527 ± 0.062 with Saccharomyces cerevisiae [1] (setting [4]); 0.348 ± 0.035 in the data set on Saccharomyces cerevisiae [1] (setting [5]); 0.563 ± 0.03 in the data set on Saccharomyces cerevisiae [1] (setting [6]); 0.265 ± 0.0061 with Saccharomyces cerevisiae [1] (setting [7]); 0.334 ± 0.015 with Saccharomyces cerevisiae [1] (setting [8]). Also, the protein stability index in the data set on Saccharomyces cerevisiae [1] (setting [9]) stood at 0.492 ± 0.018; with Saccharomyces cerevisiae [2] it was 0.446 ± 0.021.

Source of the values: the supplement of paper PMC10724198.
